Laboratory results as given in paper PMC7888582 (Protein Science : A Publication of the Protein Society, 2021).

How the values were obtained:
Assay in all cases: SEC
[1] = biological target: GGGPS of Nitrososphaera viennensis (nvGGGPS) (Nitrososphaera viennensis)
[2] = biological target: mtGGGPS_W141A (Methanothermobacter thermautotrophicus)
[3] = biological target: mtGGGPS_W141H (Methanothermobacter thermautotrophicus)
[4] = biological target: the molecule itself

“GGGPS of Nitrososphaera viennensis (nvGGGPS) (enzyme)” gave a stoichiometry N [1] of 6.

mtGGGPS_W141A (enzyme) was tested, and the stoichiometry N [2] was 2.

mtGGGPS_W141H (enzyme) showed a stoichiometry N [3] of 6.

B1: wild-type Methanothermobacter thermautotrophicus GGGPS (mtGGGPS) (enzyme)
chain: MKVEDYFHDILRERKIHLTLIDPEEQTPEEAVEIARAAIRGGTDGIMLGGSTTDSSELDNTARALRENIDVPIILFPGNTTGVSRYADAIFFMSLLNSTNPYWIIGAQALGAATVKKMGIEALPMGYLVVEPGGTVGWVGDTKPVPRNKPDIAAAYAMAAEFLGMRLFYLEAGSGAPEHVPEEMIALVKRCTDQILIVGGGIRSGEDAARVAGAGADVVVTGTVVENSDNVEDKIREIVEGMGSV
With B1 the “stoichiometry N” value [4] was 6.
